# Measurements: paper PMC1369289
# T1: JunB selected fragment (Mus musculus, UniProt P09450 265-328)
# T1 sequence: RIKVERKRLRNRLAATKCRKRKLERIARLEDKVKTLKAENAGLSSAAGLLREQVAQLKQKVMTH
# T2: JunD selected fragment (Mus musculus, UniProt P15066 262-325)
# T2 sequence: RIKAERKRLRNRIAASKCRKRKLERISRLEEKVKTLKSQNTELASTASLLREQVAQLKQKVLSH
# B1: TRE EMSA probe (dsDNA)
# DNA 1: TTCTCCTATGACTCATCCAT
# DNA 2: AATGGATGAGTCATAGGAGA
# B2: TRE bait DNA (dsDNA)
# DNA 1: TGATGACTCATCTCCTATGACTCATCCATTGCATGACTCAGACTTGATGAGTCAGCCGAGCATGAGTCAGACACCTTGCCTGAGCTCAGA
# DNA 2: TTCTGAGCTCAGGCAAGGTGTCTGACTCATGCTCGGCTGACTCATCAAGTCTGAGTCATGCAATGGATGAGTCATAGGAGATGAGTCATCA
# Tests used:
# [1] = target: T1, JunB selected fragment; experiment: EMSA
# [2] = target: c-Jun selected fragment (Mus musculus, UniProt P05627 255-313); experiment: EMSA
# [3] = target: T2, JunD selected fragment; experiment: EMSA
# [4] = target: c-Fos model fragment;c-Jun model fragment (Mus musculus?;Mus musculus?, UniProt P01101;P05627 118-212;237-334, |); experiment: mRNA display affinity selection, qPCR
# Sequence of c-Fos model fragment;c-Jun model fragment (P01101 118-212, chain 1 of 2): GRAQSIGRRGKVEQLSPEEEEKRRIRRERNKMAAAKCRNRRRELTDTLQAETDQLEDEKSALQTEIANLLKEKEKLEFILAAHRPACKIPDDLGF
# Sequence of c-Fos model fragment;c-Jun model fragment (P05627 237-334, chain 2 of 2): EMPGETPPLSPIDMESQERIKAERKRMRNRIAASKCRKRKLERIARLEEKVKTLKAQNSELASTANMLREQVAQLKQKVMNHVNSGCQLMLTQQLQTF
# Sequence of c-Jun selected fragment (P05627 255-313): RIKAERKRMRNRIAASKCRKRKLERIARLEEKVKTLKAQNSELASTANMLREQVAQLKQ
Binder,binding result [1],binding result [2],binding result [3],binding signal [4] [fold enrichment]
B1,binds,binds,binds,
B2,,,,~100
